System: Escherichia coli TOP10
Assay: shrunken log2 fold change of peptide-encoding DNA abundance (4.5 h post-induction vs induction); higher = less antimicrobial activity (less host growth inhibition)
Details: time post-induction: 4.5 h; library: site-saturation at positions 5, 18, 19, 20
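Note: peptides expressed intracellularly from a pBAD plasmid library in pooled LB shake-flask culture, induced with 0.3% L-arabinose, DNA abundance read by NGS, three biological replicates, DESeq2 with apeglm shrinkage.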

RRIRGRPPRLPRPRPRPGGTPRP
shrunken log2 fold change: 1.09

RRIRGRPPRLPRPRPRPGHTPRP
shrunken log2 fold change: 0.0237

RRIRGRPPRLPRPRPRPGILPRP
shrunken log2 fold change: 0.335

RRIRGRPPRLPRPRPRPGIRPRP
shrunken log2 fold change: 0.208

RRIRGRPPRLPRPRPRPGKEPRP
shrunken log2 fold change: 0.225

RRIRGRPPRLPRPRPRPGKHPRP
shrunken log2 fold change: 0.384

RRIRGRPPRLPRPRPRPGKNPRP
shrunken log2 fold change: 0.0656

RRIRGRPPRLPRPRPRPGLTPRP
shrunken log2 fold change: 1.09

RRIRGRPPRLPRPRPRPGNPPRP
shrunken log2 fold change: 0.134

RRIRGRPPRLPRPRPRPGNYPRP
shrunken log2 fold change: -0.0899

RRIRGRPPRLPRPRPRPGQAPRP
shrunken log2 fold change: 0.353

RRIRGRPPRLPRPRPRPGVTPRP
shrunken log2 fold change: 0.721

RRIRGRPPRLPRPRPRPGVVPRP
shrunken log2 fold change: 1.43

RRIRGRPPRLPRPRPRPGYCPRP
shrunken log2 fold change: -0.183

RRIRGRPPRLPRPRPRPGYSPRP
shrunken log2 fold change: 2.2

RRIRGRPPRLPRPRPRPHDSPRP
shrunken log2 fold change: -0.0179

RRIRGRPPRLPRPRPRPHDWPRP
shrunken log2 fold change: 0.46

RRIRGRPPRLPRPRPRPHEAPRP
shrunken log2 fold change: -0.000398

RRIRGRPPRLPRPRPRPHELPRP
shrunken log2 fold change: 0.871

RRIRGRPPRLPRPRPRPHFDPRP
shrunken log2 fold change: 0.469

RRIRGRPPRLPRPRPRPHHKPRP
shrunken log2 fold change: -0.122

RRIRGRPPRLPRPRPRPHIDPRP
shrunken log2 fold change: 0.301

RRIRGRPPRLPRPRPRPHIVPRP
shrunken log2 fold change: 0.106

RRIRGRPPRLPRPRPRPHKFPRP
shrunken log2 fold change: 0.151

RRIRGRPPRLPRPRPRPHLDPRP
shrunken log2 fold change: 0.34

RRIRGRPPRLPRPRPRPHQPPRP
shrunken log2 fold change: 0.18

RRIRGRPPRLPRPRPRPHQRPRP
shrunken log2 fold change: 0.23

RRIRGRPPRLPRPRPRPHRHPRP
shrunken log2 fold change: 0.107

RRIRGRPPRLPRPRPRPHSVPRP
shrunken log2 fold change: -0.0536

RRIRGRPPRLPRPRPRPHSWPRP
shrunken log2 fold change: 0.417

RRIRGRPPRLPRPRPRPHTRPRP
shrunken log2 fold change: 0.559

RRIRGRPPRLPRPRPRPHVIPRP
shrunken log2 fold change: -0.191

RRIRGRPPRLPRPRPRPHWKPRP
shrunken log2 fold change: 0.184

RRIRGRPPRLPRPRPRPHWRPRP
shrunken log2 fold change: 0.203

RRIRGRPPRLPRPRPRPHWVPRP
shrunken log2 fold change: 0.107

RRIRGRPPRLPRPRPRPIADPRP
shrunken log2 fold change: 0.16

RRIRGRPPRLPRPRPRPIAHPRP
shrunken log2 fold change: 0.334

RRIRGRPPRLPRPRPRPICGPRP
shrunken log2 fold change: 0.728

RRIRGRPPRLPRPRPRPICWPRP
shrunken log2 fold change: 0.714

RRIRGRPPRLPRPRPRPIDHPRP
shrunken log2 fold change: 0.115

RRIRGRPPRLPRPRPRPIDQPRP
shrunken log2 fold change: 0.436

RRIRGRPPRLPRPRPRPIEFPRP
shrunken log2 fold change: 0.0349

RRIRGRPPRLPRPRPRPIEHPRP
shrunken log2 fold change: 0.125

RRIRGRPPRLPRPRPRPIFLPRP
shrunken log2 fold change: 0.0935

RRIRGRPPRLPRPRPRPIGLPRP
shrunken log2 fold change: 0.19

RRIRGRPPRLPRPRPRPIGPPRP
shrunken log2 fold change: 0.5

RRIRGRPPRLPRPRPRPIGQPRP
shrunken log2 fold change: 0.0805

RRIRGRPPRLPRPRPRPIGRPRP
shrunken log2 fold change: 0.551

RRIRGRPPRLPRPRPRPILEPRP
shrunken log2 fold change: 0.229

RRIRGRPPRLPRPRPRPILRPRP
shrunken log2 fold change: 0.161

RRIRGRPPRLPRPRPRPILYPRP
shrunken log2 fold change: 0.0934

RRIRGRPPRLPRPRPRPIMVPRP
shrunken log2 fold change: -0.0212

RRIRGRPPRLPRPRPRPINFPRP
shrunken log2 fold change: -0.189

RRIRGRPPRLPRPRPRPIPPPRP
shrunken log2 fold change: 0.548

RRIRGRPPRLPRPRPRPIQHPRP
shrunken log2 fold change: -0.0341

RRIRGRPPRLPRPRPRPIVCPRP
shrunken log2 fold change: 0.356

RRIRGRPPRLPRPRPRPIVFPRP
shrunken log2 fold change: 0.194

RRIRGRPPRLPRPRPRPIWCPRP
shrunken log2 fold change: 0.0438

RRIRGRPPRLPRPRPRPIWFPRP
shrunken log2 fold change: 0.31

RRIRGRPPRLPRPRPRPIWTPRP
shrunken log2 fold change: 0.352

RRIRGRPPRLPRPRPRPKAAPRP
shrunken log2 fold change: 1.26

RRIRGRPPRLPRPRPRPKCDPRP
shrunken log2 fold change: 0.812

RRIRGRPPRLPRPRPRPKCNPRP
shrunken log2 fold change: 0.541

RRIRGRPPRLPRPRPRPKDEPRP
shrunken log2 fold change: 0.696

RRIRGRPPRLPRPRPRPKDWPRP
shrunken log2 fold change: 0.914

RRIRGRPPRLPRPRPRPKFFPRP
shrunken log2 fold change: 0.36

RRIRGRPPRLPRPRPRPKFMPRP
shrunken log2 fold change: 0.316

RRIRGRPPRLPRPRPRPKFRPRP
shrunken log2 fold change: 0.112

RRIRGRPPRLPRPRPRPKHAPRP
shrunken log2 fold change: 1.21

RRIRGRPPRLPRPRPRPKHKPRP
shrunken log2 fold change: 0.448

RRIRGRPPRLPRPRPRPKKEPRP
shrunken log2 fold change: 0.042

RRIRGRPPRLPRPRPRPKKVPRP
shrunken log2 fold change: 0.942

RRIRGRPPRLPRPRPRPKLCPRP
shrunken log2 fold change: 0.75

RRIRGRPPRLPRPRPRPKMMPRP
shrunken log2 fold change: 0.345

RRIRGRPPRLPRPRPRPKMSPRP
shrunken log2 fold change: 0.344

RRIRGRPPRLPRPRPRPKNVPRP
shrunken log2 fold change: 0.0302

RRIRGRPPRLPRPRPRPKPPPRP
shrunken log2 fold change: 2.28

RRIRGRPPRLPRPRPRPKQGPRP
shrunken log2 fold change: 0.524

RRIRGRPPRLPRPRPRPKQMPRP
shrunken log2 fold change: 1.03

RRIRGRPPRLPRPRPRPKRKPRP
shrunken log2 fold change: 0.835

RRIRGRPPRLPRPRPRPKSDPRP
shrunken log2 fold change: 0.584

RRIRGRPPRLPRPRPRPKVEPRP
shrunken log2 fold change: 0.615

RRIRGRPPRLPRPRPRPKVKPRP
shrunken log2 fold change: 0.547

RRIRGRPPRLPRPRPRPKVVPRP
shrunken log2 fold change: 0.12

RRIRGRPPRLPRPRPRPKVWPRP
shrunken log2 fold change: 0.665

RRIRGRPPRLPRPRPRPKWDPRP
shrunken log2 fold change: 0.771

RRIRGRPPRLPRPRPRPKWLPRP
shrunken log2 fold change: 0.749

RRIRGRPPRLPRPRPRPKWMPRP
shrunken log2 fold change: 0.58

RRIRGRPPRLPRPRPRPKWSPRP
shrunken log2 fold change: 0.564

RRIRGRPPRLPRPRPRPKYNPRP
shrunken log2 fold change: 0.02

RRIRGRPPRLPRPRPRPLDMPRP
shrunken log2 fold change: 0.441

RRIRGRPPRLPRPRPRPLGWPRP
shrunken log2 fold change: 1.27

RRIRGRPPRLPRPRPRPLHHPRP
shrunken log2 fold change: 0.452

RRIRGRPPRLPRPRPRPLMGPRP
shrunken log2 fold change: 0.373

RRIRGRPPRLPRPRPRPLMKPRP
shrunken log2 fold change: 0.635

RRIRGRPPRLPRPRPRPLMNPRP
shrunken log2 fold change: 0.303

RRIRGRPPRLPRPRPRPLMSPRP
shrunken log2 fold change: 0.271

RRIRGRPPRLPRPRPRPLNRPRP
shrunken log2 fold change: 0.33

RRIRGRPPRLPRPRPRPLPRPRP
shrunken log2 fold change: 1.5

RRIRGRPPRLPRPRPRPLQLPRP
shrunken log2 fold change: 0.447

RRIRGRPPRLPRPRPRPLQNPRP
shrunken log2 fold change: 0.693

RRIRGRPPRLPRPRPRPLSDPRP
shrunken log2 fold change: 0.365

RRIRGRPPRLPRPRPRPLVLPRP
shrunken log2 fold change: 0.401

RRIRGRPPRLPRPRPRPLWDPRP
shrunken log2 fold change: 0.537

RRIRGRPPRLPRPRPRPLWGPRP
shrunken log2 fold change: 0.583

RRIRGRPPRLPRPRPRPLWNPRP
shrunken log2 fold change: 0.116

RRIRGRPPRLPRPRPRPLWYPRP
shrunken log2 fold change: 0.298

RRIRGRPPRLPRPRPRPLYEPRP
shrunken log2 fold change: 0.913

RRIRGRPPRLPRPRPRPMADPRP
shrunken log2 fold change: 0.173

RRIRGRPPRLPRPRPRPMCTPRP
shrunken log2 fold change: 2.37

RRIRGRPPRLPRPRPRPMCWPRP
shrunken log2 fold change: 0.859

RRIRGRPPRLPRPRPRPMCYPRP
shrunken log2 fold change: 0.243

RRIRGRPPRLPRPRPRPMDSPRP
shrunken log2 fold change: 0.318

RRIRGRPPRLPRPRPRPMEMPRP
shrunken log2 fold change: 0.756

RRIRGRPPRLPRPRPRPMGRPRP
shrunken log2 fold change: 0.28

RRIRGRPPRLPRPRPRPMGTPRP
shrunken log2 fold change: 0.48

RRIRGRPPRLPRPRPRPMIAPRP
shrunken log2 fold change: 0.915

RRIRGRPPRLPRPRPRPMISPRP
shrunken log2 fold change: 1.18

RRIRGRPPRLPRPRPRPMKCPRP
shrunken log2 fold change: 0.0384

RRIRGRPPRLPRPRPRPMKNPRP
shrunken log2 fold change: 0.68

RRIRGRPPRLPRPRPRPMKPPRP
shrunken log2 fold change: 0.276

RRIRGRPPRLPRPRPRPMLCPRP
shrunken log2 fold change: 0.558

RRIRGRPPRLPRPRPRPMLGPRP
shrunken log2 fold change: 1.19

RRIRGRPPRLPRPRPRPMLMPRP
shrunken log2 fold change: 1.09

RRIRGRPPRLPRPRPRPMRDPRP
shrunken log2 fold change: 0.947

RRIRGRPPRLPRPRPRPMRPPRP
shrunken log2 fold change: 1.3

RRIRGRPPRLPRPRPRPMTCPRP
shrunken log2 fold change: 0.133

RRIRGRPPRLPRPRPRPMTVPRP
shrunken log2 fold change: 0.0506

RRIRGRPPRLPRPRPRPMVSPRP
shrunken log2 fold change: 0.313

RRIRGRPPRLPRPRPRPMWCPRP
shrunken log2 fold change: 0.667

RRIRGRPPRLPRPRPRPMYTPRP
shrunken log2 fold change: 0.876

RRIRGRPPRLPRPRPRPNAAPRP
shrunken log2 fold change: 2.21

RRIRGRPPRLPRPRPRPNCEPRP
shrunken log2 fold change: 0.376

RRIRGRPPRLPRPRPRPNCIPRP
shrunken log2 fold change: 0.247

RRIRGRPPRLPRPRPRPNDFPRP
shrunken log2 fold change: -0.000929

RRIRGRPPRLPRPRPRPNDIPRP
shrunken log2 fold change: -0.528

RRIRGRPPRLPRPRPRPNEQPRP
shrunken log2 fold change: -0.0722

RRIRGRPPRLPRPRPRPNEVPRP
shrunken log2 fold change: 0.0747

RRIRGRPPRLPRPRPRPNFAPRP
shrunken log2 fold change: 0.569

RRIRGRPPRLPRPRPRPNFIPRP
shrunken log2 fold change: -0.00471

RRIRGRPPRLPRPRPRPNGHPRP
shrunken log2 fold change: 0.197

RRIRGRPPRLPRPRPRPNHAPRP
shrunken log2 fold change: -0.0738

RRIRGRPPRLPRPRPRPNKQPRP
shrunken log2 fold change: 0.326

RRIRGRPPRLPRPRPRPNLFPRP
shrunken log2 fold change: 0.129

RRIRGRPPRLPRPRPRPNLHPRP
shrunken log2 fold change: 0.303

RRIRGRPPRLPRPRPRPNMTPRP
shrunken log2 fold change: 1.63

RRIRGRPPRLPRPRPRPNNWPRP
shrunken log2 fold change: 0.121

RRIRGRPPRLPRPRPRPNPCPRP
shrunken log2 fold change: 0.102

RRIRGRPPRLPRPRPRPNPQPRP
shrunken log2 fold change: 0.0794

RRIRGRPPRLPRPRPRPNQMPRP
shrunken log2 fold change: 1.6
